From patent US20240002490A1 (SCHOLAR ROCK, published 2024) come the findings set out here.

The target in assay [1] is T1, rat promyostatin (rat, UniProt O35312 25-376). The assay is described as follows: biolayer interferometry (ForteBio Octet QKe), apitegromab on human Fc capture tips, promyostatin in solution, 1:1 global fit, single concentration.
Protocol: (§1) All baseline steps, loading of biotinylated antigens, and antibody association and dissociation steps were performed in 1× kinetics buffer containing PBS pH 74 with 0.002% Tween 20 and 0.01% BSA. Association proceeded for 300 seconds and dissociations were then performed in 1× kinetics buffer for at least 600 seconds. Data analysis was performed on FortèBio Data Analysis software version 8.2. A 1:1 global fitting model considering both association and dissociation was then utilized for the single concentration KD determination for each antigen antibody/construct pair.
The target in assay [2] is T2, cynomolgus monkey promyostatin (cynomolgus monkey, UniProt Q95J86 19-375).
T2 construct: also called cynomolgus promyostatin
The description is as above.
Protocol: as §1

In assay [3] the target is T1, rat promyostatin. The assay is described as follows: cell-based or functional assay.
The target in assay [4] is T2, cynomolgus monkey promyostatin. Description: cell-based or functional assay.

B1: Apitegromab (antibody, human IgG4 S228P, lambda, V domains shown)
VH: QVQLVESGGGVVQPGRSLRLSCAASGFTFSSYGMHWVRQAPGKGLEWVAVISYDGSNKYYADSVKGRFTISRDNSKNTLYLQMNSLRAEDTAVYYCARDLLVRFLEWSHYYGMDVWGQGTTVTVSS
VL: not shown
notes: Fully human monoclonal IgG4/lambda; also called SRK-015; anti-pro/latent myostatin antibody
For B1, the Kd in the assay with rat promyostatin [1] came to 2 nM; in assay [2], 4.86 nM. Also, the “IC50 of inhibition of proteolytic activation of promyostatin (SMAD-responsive luciferase reporter cells)” value with rat promyostatin [3] is 153 nM; in assay [4], 584 nM.

The term Kd denotes the concentration at which binding is half-saturated.
